Measurements taken from patent publication US20230235040A1 (ALMIRALL S A, published 2023).
Values belong to the binder of their own block, whether it stands above or below them.

Key:
[1] = molecular target: T1, hu-IL-36γ (human IL-36γ, N-terminally truncated active form S18-D169) (human, UniProt Q9NZH8 18-169); assay: cell-based or functional assay
T1 sequence: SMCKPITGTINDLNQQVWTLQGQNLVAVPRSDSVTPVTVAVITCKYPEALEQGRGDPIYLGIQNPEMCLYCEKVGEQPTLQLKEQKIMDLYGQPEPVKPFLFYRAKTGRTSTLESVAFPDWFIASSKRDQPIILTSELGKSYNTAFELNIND

[2] = molecular target: T2, hu-IL-36α (human IL-36α, N-terminally truncated active form K6-F158) (human, UniProt Q9UHA7 6-158); assay: cell-based or functional assay
T2 sequence: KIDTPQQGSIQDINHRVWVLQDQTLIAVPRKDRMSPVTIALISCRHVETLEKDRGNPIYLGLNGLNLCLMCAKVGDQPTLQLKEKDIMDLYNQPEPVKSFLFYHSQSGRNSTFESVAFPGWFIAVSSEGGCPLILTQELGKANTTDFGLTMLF

[3] = molecular target: T3, cy-IL-36α (cynomolgus monkey IL-36α, K6-F158) (cynomolgus monkey, UniProt Q9UHA7 14-158 (human entry)); assay: cell-based or functional assay
T3 chain: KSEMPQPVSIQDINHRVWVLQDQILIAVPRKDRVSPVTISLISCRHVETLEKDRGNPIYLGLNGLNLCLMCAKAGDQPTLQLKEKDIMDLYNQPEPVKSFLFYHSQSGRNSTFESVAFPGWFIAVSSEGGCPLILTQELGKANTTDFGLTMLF

[4] = molecular target: T1, hu-IL-36γ (human IL-36γ, N-terminally …); assay: cell-based or functional assay; remark: listed apart in the source
[5] = molecular target: T4, cy-IL-36γ (cynomolgus monkey IL-36γ, S18-K168) (cynomolgus monkey, UniProt Q9NZH8 18-167 (human entry)); assay: cell-based or functional assay
T4 chain: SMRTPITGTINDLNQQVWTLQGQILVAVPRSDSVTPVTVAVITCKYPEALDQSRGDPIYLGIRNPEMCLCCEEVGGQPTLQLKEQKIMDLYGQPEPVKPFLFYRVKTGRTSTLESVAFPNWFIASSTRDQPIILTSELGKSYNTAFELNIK

[6] = molecular target: T2, hu-IL-36α (human IL-36α, N-terminally …); assay: cell-based or functional assay; remark: listed apart in the source
[7] = molecular target: T5, hu-IL-36β (human IL-36β, N-terminally truncated active form R5-E157) (human); assay: SPR (Biacore 8K), biotinylated IL-36 captured on CAP chip, Fab injected, 37°C
T5 construct: Purification tag cleaved off; Biotinylated where captured; also called hu-IL-36b
T5 chain: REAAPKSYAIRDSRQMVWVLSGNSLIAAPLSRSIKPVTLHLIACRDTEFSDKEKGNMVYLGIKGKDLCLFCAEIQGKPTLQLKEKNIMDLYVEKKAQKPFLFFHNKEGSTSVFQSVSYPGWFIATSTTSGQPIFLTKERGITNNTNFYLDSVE
Procedure: (§1) Briefly, a 1:4 dilution of Biotin CAPture Reagent (GE Healthcare, Chicago, Ill., USA)) into HBS-EP buffer (GE Healthcare, Chicago, Ill., USA; 0.01 M HEPES pH 7.4, 0.15 M NaCl, 3 mM EDTA, 0.005% Surfactant P20) was applied to a CAP sensor chip at 2 μL/min flow rate. […] FC1 was kept as a reference. […] The sensorgram was recorded and subject to reference and buffer subtraction before data analysis with the BIACORE® 8K Evaluation Software (GE Healthcare, Chicago, Ill., USA; version 1.1.1.7442). Association rates (kₒₙ) and dissociation rates (koff) were calculated using a simple one-to-one Langmuir binding model. The equilibrium dissociation constant (KD) was calculated as the ratio of koff/kₒₙ.

[8] = molecular target: T5, hu-IL-36β (human IL-36β, N-terminally …); assay: SPR (Biacore 8K), biotinylated IL-36 captured on CAP chip, Fab injected, 25°C
Procedure: as §1

[9] = molecular target: T5, hu-IL-36β (human IL-36β, N-terminally …); assay: cell-based or functional assay
[10] = molecular target: T5, hu-IL-36β (human IL-36β, N-terminally …); assay: SPR (Biacore 8K), IgG captured on protein A chip, hu-IL-36β injected, 37°C
Procedure: FC1 was kept as a reference. Next, 3-fold serial dilutions of hu-IL-36β in HBS-P buffer from low (0.046 nM of hu-IL-36β) to high (100 nM of hu-IL-36β) were injected (flow rate: 30 μL/min) at either 37° C. The sensorgram was recorded and subject to reference and buffer subtraction before data analysis with the BIACORE® 8K Evaluation Software (GE Healthcare, Chicago, Ill., USA; version 1.1.1.7442). Association rates (kₒₙ) and dissociation rates (koff) were calculated using a simple one-to-one Langmuir binding model. The equilibrium dissociation constant (KD) was calculated as the ratio of koff/kₒₙ.

[11] = molecular target: T6, cy-IL-36β (cynomolgus monkey IL-36β, W5-E157) (cynomolgus monkey); assay: cell-based or functional assay
T6 chain: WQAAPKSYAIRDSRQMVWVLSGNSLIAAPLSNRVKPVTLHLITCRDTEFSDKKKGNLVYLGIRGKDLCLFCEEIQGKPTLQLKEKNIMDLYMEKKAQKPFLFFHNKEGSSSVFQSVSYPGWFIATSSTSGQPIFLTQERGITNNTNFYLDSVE

[12] = molecular target: T5, hu-IL-36β (human IL-36β, N-terminally …); assay: cell-based or functional assay
[13] = molecular target: T5, hu-IL-36β (human IL-36β, N-terminally …); assay: ELISA, yeast Fab supernatant, anti-Fab-HRP
[14] = molecular target: T6, cy-IL-36β (cynomolgus monkey IL-36β, …); assay: ELISA on coated cy- and hu-IL-36β, yeast Fab supernatant; ratio of OD450
Procedure: Cell supernatants from yeast clones of interest were tested for binding to human IL-36 by ELISA as described above. To compare the binding of these supernatants to human and cynomolgus monkey IL-36, IL-36 proteins were coated at 2.5 μg/mL on 96-well Nunc MaxiSorp plates (Thermo Fisher) and the plates blocked with 5% goat serum in PBS. Yeast supernatants were diluted 1:1 with PBST containing 1% w/v BSA and added to the ELISA plates for 1-1.5 hours with agitation. Bound Fab was detected by incubating the plates with F(ab′)2-HRP (Jackson ImmunoResearch). The ELISAs were developed for 3-10 minutes by addition of 50 μL/well of tetramethylbenzidine (TMB) microwell peroxidase substrate (Scytek Laboratories, Inc., Logan, Utah, USA) and enzymatic color development was stopped by acidification with 50 µL/well of 2 N H₂SO₄ (Sigma-Aldrich Corporation, St. Louis, Mo., USA). The optical density of the samples at a wavelength of 450 nm (OD450) was analyzed with a SpectraMax i3X plate reader (Molecular Devices LLC, San Jose, Calif., USA). To estimate the relative affinity of each clone for cynomolgus monkey IL-36 and human IL-36 in this assay, a ratio of OD450 (OD450_cyIL-36/OD450_huIL-36) was calculated for each clone and IL-36 cytokine.

[15] = molecular target: T5, hu-IL-36β (human IL-36β, N-terminally …); assay: cell-based or functional assay
[16] = molecular target: T1, hu-IL-36γ (human IL-36γ, N-terminally …); assay: SPR (Biacore 8K), biotinylated IL-36 captured on CAP chip, Fab injected, 37°C
Procedure: as §1

[17] = molecular target: T2, hu-IL-36α (human IL-36α, N-terminally …); assay: as above
Procedure: as §1

[18] = molecular target: T1, hu-IL-36γ (human IL-36γ, N-terminally …); assay: SPR (Biacore 8K), biotinylated IL-36 captured on CAP chip, Fab injected, 25°C
Procedure: as §1

[19] = molecular target: T2, hu-IL-36α (human IL-36α, N-terminally …); assay: as above
Procedure: as §1

B2: mAb6.0 Fab (purified, lysyl-C cleaved from recombinant IgG1) (Fab, V domains shown)
VH: QLQLQESGPGLVKPSETLSLTCTVSGGSITSSNYYWGWIRQPPGKGLEWIGSIDYTGSTYYNPSLKSRVTISVDTSKNQFSLKLSSVTAADTAVYYCARGKYYETYLGFDVWGQGTLVTVSS
VL: QSVLTQPPSVSGAPGQRVTISCTGSSSNIGAGYDVHWYQQLPGTAPKLLIYGNTNRPSGVPDRFSGSKSGTSASLAITGLQAEDEADYYCQSYDISLSGWVFGGGTKLTVL
notes: also called purified mAb6.0 Fab
Kd [7]: 1.93 nM
koff [7]: 0.000118 s⁻¹
kon [7]: 61100 M⁻¹ s⁻¹
Kd [8]: 1.79 nM
koff [8]: 7.23e-05 s⁻¹
kon [8]: 40400 M⁻¹ s⁻¹

B3: mAb6.0 recombinant human IgG1 (antibody, V domains shown)
VH: QLQLQESGPGLVKPSETLSLTCTVSGGSITSSNYYWGWIRQPPGKGLEWIGSIDYTGSTYYNPSLKSRVTISVDTSKNQFSLKLSSVTAADTAVYYCARGKYYETYLGFDVWGQGTLVTVSS
VL: QESVLTQPPSVSGAPGQRVTISCTGSSSNIGAGYDVHWYQQLPGTAPKLLIYGNTNRPSGVPDRFSGSKSGTSASLAITGLQAEDEADYYCQSYDISLSGWVFGGGTKLTVLG
notes: Human IgG1; also called mAb6.0 IgG
IC50, HEK-Blue IL-36R SEAP reporter assay [9]: 0.64 nM
Kd [10]: 0.42 nM
koff [10]: 0.000115 s⁻¹
kon [10]: 362000 M⁻¹ s⁻¹
IC50, HEK-Blue assay with human IL1RL2 [11]: 1.96 nM
IC50, IL-36-stimulated IL-8 secretion by HaCat cells [12]: 0.082 nM
IC50, IL-36-stimulated IL-8 secretion by primary human keratinocytes (HEKn) [12]: 1.75 nM
IC50, hu-IL-36β-stimulated IL-8 secretion by HaCat cells [12]: 0.8 nM
blocking potency relative to IL-36Ra, HaCat IL-8 assay [12]: 1000 fold

B5: mAb2.0 Fab (purified, lysyl-C cleaved from recombinant IgG1) (Fab, V domains shown)
VH: QLQLQESGPGLVKPSETLSLTCTVSGGSISTSSYYWGWIRQPPGKGLEWIGSIYYTGNTYYNPSLKSRVTISVDTSKNQFSLKLSSVTAADTAVYYCARVRYGVGVPRYFDPWGQGTLVTVSS
VL: QSVLTQPPSVSGAPGQRVTISCTGSSSNIGAHYDVHWYQQLPGTAPKLLIYGNDNRPSGVPDRFSGSKSGTSASLAITGLQAEDEADYYCQSYDYSLSGYVFGGGTKLTVL
notes: also called purified mAb2.0 Fab
Kd [16]: 1.61 nM
koff [16]: 0.00108 s⁻¹
kon [16]: 671000 M⁻¹ s⁻¹
Kd [17]: 0.3 nM
koff [17]: 0.000502 s⁻¹
kon [17]: 1.69e+06 M⁻¹ s⁻¹
Kd [18]: 0.98 nM
koff [18]: 0.000358 s⁻¹
kon [18]: 366000 M⁻¹ s⁻¹
Kd [19]: 1.2 nM
koff [19]: 0.000413 s⁻¹
kon [19]: 345000 M⁻¹ s⁻¹

B6: mAb7.0 Fab (yeast clone culture supernatant) (Fab, V domains shown)
VH: QVQLVESGGGVVQPGRSLRLSCAASGFTFSSYGMHWVRQAPGKGLEWVAVISYGGSERYYADSVKGRFTISRDNSKNTLYLQMNSLRAEDTAVYYCAREPWYSSRGWTGYGFDVWGQGTLVTVSS
VL: EIVLTQSPGTLSLSPGERATLSCRASQSVSSNYLAWYQQKPGQAPKLLIYSASSLQSGVPSRFSGSGSGTDFTLTISSLQPEDFATYYCQQTYSYPPTFGQGTKVEIK
notes: Human Fab secreted by the yeast clone, not purified
ELISA OD450 [13]: 2.58 OD450
ELISA OD450cyIL-36/OD450hu-IL-36 [14]: 3.9 ratio
% Inhibition, HEK-Blue IL-36R SEAP reporter assay [15]: 84%

The remaining lines, values ahead:

IC50, HEK-Blue IL-36R SEAP reporter assay [1]: 7.5 nM
IC50, HEK-Blue IL-36R SEAP reporter assay [2]: 5.7 nM
IC50, HEK-Blue assay with human IL1RL2 [3]: 0.56 nM
IC50, IL-36-stimulated IL-8 secretion by HaCat cells [4]: 1.23 nM
IC50, IL-36-stimulated IL-8 secretion by primary human keratinocytes (HEKn) [4]: 2.27 nM
blocking potency relative to the natural antagonist IL-36Ra, HaCat IL-8 assay [4]: 12 fold
IC50, HEK-Blue assay with human IL1RL2 [5]: 1.71 nM
IC50, IL-36-stimulated IL-8 secretion by HaCat cells [6]: 0.28 nM
IC50, IL-36-stimulated IL-8 secretion by primary human keratinocytes (HEKn) [6]: 0.33 nM
blocking potency relative to the natural antagonist IL-36Ra, HaCat IL-8 assay [6]: 100 fold
B1: mAb2.0 recombinant human IgG1 (antibody, V domains shown)
VH: QLQLQESGPGLVKPSETLSLTCTVSGGSISTSSYYWGWIRQPPGKGLEWIGSIYYTGNTYYNPSLKSRVTISVDTSKNQFSLKLSSVTAADTAVYYCARVRYGVGVPRYFDPWGQGTLVTVSS
VL: QSVLTQPPSVSGAPGQRVTISCTGSSSNIGAHYDVHWYQQLPGTAPKLLIYGNDNRPSGVPDRFSGSKSGTSASLAITGLQAEDEADYYCQSYDYSLSGYVFGGGTKLTVLG

ELISA OD450 [13]: 2.34 OD450
ELISA OD450cyIL-36/OD450hu-IL-36 [14]: 4 ratio
% Inhibition, HEK-Blue IL-36R SEAP reporter assay [15]: 86%
B4: mAb6.0 Fab (yeast clone culture supernatant) (Fab, V domains shown)
VH: QLQLQESGPGLVKPSETLSLTCTVSGGSITSSNYYWGWIRQPPGKGLEWIGSIDYTGSTYYNPSLKSRVTISVDTSKNQFSLKLSSVTAADTAVYYCARGKYYETYLGFDVWGQGTLVTVSS
VL: QSVLTQPPSVSGAPGQRVTISCTGSSSNIGAGYDVHWYQQLPGTAPKLLIYGNTNRPSGVPDRFSGSKSGTSASLAITGLQAEDEADYYCQSYDISLSGWVFGGGTKLTVL
notes: as for B6
